Laboratory results published in PMC9256674, “Structures of LIG1 that engage with mutagenic mismatches inserted by polβ in base excision repair”.
Values belong to the molecule of their own block, whether it stands above or below them.

Experiments:
[1] = molecular target: AP-endonuclease 1 (human) (UniProt P27695); test: SPR; Biacore X-100; APE1 amine-coupled on a CM5 chip, 25 °C; LIG1 0-1.6 µM injected as analyte in 20 mM HEPES pH 7.4, 150 mM NaCl, 3 mM EDTA, 0.005% Surfactant P20; 1:1 (Langmuir) fit
[2] = molecular target: T1, LIG1 EE/AA (C-terminal, Δ261) (Homo sapiens, UniProt P18858 262-919, E346A;E592A); test: X-ray crystallography (2.9 Å); AMP as DNA-AMP (step 2); no Mg2+; Crystallization conditions not in the material; LIG1 final purification buffer 20 mM Tris-HCl pH 7.0, 200 mM NaCl, 1 mM DTT; storage 25 mM Tris-HCl pH 7.0, 200; details: protein: recombinant; nicked duplex: 11-mer upstream + 7-mer 5'-P downstream on 18-mer template; blunt ends; A:T at nick 3'-end
[3] = molecular target: T1, LIG1 EE/AA (C-terminal, Δ261); test: X-ray crystallography (2.8 Å); AMP covalently on K568 (LIG1-AMP, step 1); no Mg2+; Crystallization conditions not in the material; LIG1 final purification buffer 20 mM Tris-HCl pH 7.0, 200 mM NaCl, 1 mM DTT; storage 25 mM Tris-HCl pH 7.0, 200; details: protein: recombinant; nicked duplex: 11-mer upstream + 7-mer 5'-P downstream on 18-mer template; blunt ends; A:C wobble mismatch at nick 3'-end
[4] = molecular target: T1, LIG1 EE/AA (C-terminal, Δ261); test: X-ray crystallography (3.0 Å); AMP as DNA-AMP (step 2); no Mg2+; Crystallization conditions not in the material; LIG1 final purification buffer 20 mM Tris-HCl pH 7.0, 200 mM NaCl, 1 mM DTT; storage 25 mM Tris-HCl pH 7.0, 200; details: protein: recombinant; nicked duplex: 11-mer upstream + 7-mer 5'-P downstream on 18-mer template; blunt ends; G:T wobble mismatch at nick 3'-end

T1 sequence (P18858 262-919 E346A/E592A): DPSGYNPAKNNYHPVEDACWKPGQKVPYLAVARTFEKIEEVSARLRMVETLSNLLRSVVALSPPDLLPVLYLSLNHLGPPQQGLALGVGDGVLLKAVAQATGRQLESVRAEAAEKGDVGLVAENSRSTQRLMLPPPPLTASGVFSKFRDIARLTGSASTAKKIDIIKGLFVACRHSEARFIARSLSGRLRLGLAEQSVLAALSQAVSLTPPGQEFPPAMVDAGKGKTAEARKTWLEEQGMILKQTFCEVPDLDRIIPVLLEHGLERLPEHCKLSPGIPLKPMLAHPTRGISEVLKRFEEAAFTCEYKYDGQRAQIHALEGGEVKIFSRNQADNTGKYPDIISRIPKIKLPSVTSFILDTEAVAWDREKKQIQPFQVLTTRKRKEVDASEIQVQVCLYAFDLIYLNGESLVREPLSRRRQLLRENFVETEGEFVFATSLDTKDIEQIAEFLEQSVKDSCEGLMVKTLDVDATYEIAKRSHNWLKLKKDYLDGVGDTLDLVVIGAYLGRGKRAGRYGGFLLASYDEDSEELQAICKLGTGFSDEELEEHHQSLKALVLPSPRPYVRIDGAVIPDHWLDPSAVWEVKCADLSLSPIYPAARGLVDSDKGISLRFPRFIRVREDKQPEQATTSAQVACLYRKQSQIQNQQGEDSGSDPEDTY
AP-endonuclease 1 (human), sequence (P27695 whole entry): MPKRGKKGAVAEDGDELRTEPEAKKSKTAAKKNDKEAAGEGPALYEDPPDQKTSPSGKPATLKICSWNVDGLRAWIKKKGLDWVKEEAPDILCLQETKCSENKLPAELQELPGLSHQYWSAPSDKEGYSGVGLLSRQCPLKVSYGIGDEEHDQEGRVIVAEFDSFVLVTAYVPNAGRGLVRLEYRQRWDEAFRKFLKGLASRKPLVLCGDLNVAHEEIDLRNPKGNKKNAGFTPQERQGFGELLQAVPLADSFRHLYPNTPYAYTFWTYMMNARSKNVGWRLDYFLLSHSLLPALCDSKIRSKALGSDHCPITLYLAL

- Kd [1]: 117 nM
Molecule: DNA ligase I (from UniProt P18858 1-919) (enzyme)

B1: nick DNA 3'-A:T (dsDNA)
DNA 1: GCTGATGCGTA
DNA 2: GTCGGAC
DNA 3: GTCCGACTACGCATCAGC
modifications: 5'-phosphate on downstream strand (GTCGGAC); adenylated (5'-AMP) in the crystal
- binding result [2]: binds

B2: nick DNA 3'-A:C (dsDNA)
DNA 1: GCTGATGCGTA
DNA 2: GTCGGAC
DNA 3: GTCCGACCACGCATCAGC
modifications: 5'-phosphate on downstream strand (GTCGGAC), not adenylated
- binding result [3]: binds

B3: nick DNA 3'-G:T (dsDNA)
DNA 1: GCTGATGCGTG
DNA 2: GTCGGAC
DNA 3: GTCCGACTACGCATCAGC
modifications: 5'-phosphate on downstream strand (GTCGGAC); adenylated (5'-AMP) in the crystal
- binding result [4]: binds
